PMC11016868

Key:
PhoP = PhoP (UniProt P71814 1-247); experiment: fluorescence polarization
[1] = molecular target: T1, MtrAC (MtrA DNA-binding domain) (UniProt P9WGM7 131-228); experiment: fluorescence polarization
T1 sequence: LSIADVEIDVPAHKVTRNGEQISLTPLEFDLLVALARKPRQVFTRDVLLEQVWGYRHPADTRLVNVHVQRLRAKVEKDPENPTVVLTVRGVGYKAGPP

B1: PhoP DNA (from PhoP-DNA complex, 5ED4) (dsDNA)
DNA 1: GATTCACAGCTGATTCACAGCATCTA
DNA 2: TAGATGCTGTGAATCAGCTGTGAATC
binding result (PhoP): binds

B2: dnaA promoter DNA (dsDNA)
DNA 1: GGCGGTGTAGTTATCACGCCGTTT
DNA 2: AAACGGCGTGATAACTACACCGCC
Kd [1]: 1230 ± 260 nM
